Measurements reported in patent US20260117204A1, “STABILIZER FOR URATE OXIDASE AND PEGYLATED CONJUGATE THEREOF, AND PHARMACEUTICAL USE OF STABILIZER” (Hangzhou Grand Biologic Pharmaceutical Inc., priority 2023, published 2026).

B1: S2: Homemade recombinant pig-baboon chimeric urate oxidase (SEQ ID NO: 1), not PEG modified (protein)
chain: TYKKNDEVEFVRTGYGKDMIKVLHIQRDGKYHSIKEVATTVQLTLSSKKDYLHGDNSDVIPTDTIKNTVNVLAKFKGIKSIETFAVTICEHFLSSFKHVIRAQVYVEEVPWKRFEKNGVKHVHAFIYTPTGTHFCEVEQIRNGPPVIHSGIKDLKVLKTTQSGFEGFIKDQFTTLPEVKDRCFATQVYCKWRYHQGRDVDFEATWDTVRSIVLQKFAGPYDKGEYSPSVQKTLYDIQVLTLGQVPEIEDMEISLPNIHYLNIDMSKMGLINKEEVLLPLDNPYGKITGTVKRKLSSRL
B2: S1: Commercially available unmodified urate oxidase from Aspergillus flavus (SEQ ID NO: 8) (protein)
chain: SAVKAARYGKDNVRVYKVHKDEKTGVQTVYEMTVCVLLEGEIETSYTKADNSVIVATDSIKNTIYITAKQNPVTPPELFGSILGTHFIEKYNHIHAAHVNIVCHRWTRMDIDGKPHPHSFIRDSEEKRNVQVDVVEGKGIDIKSSLSGLTVLKSTNSQFWGFLRDEYTTLKETWDRILSTDVDATWQWKNFSGLQEVRSHVPKFDATWATAREVTLKTFAEDNSASVQATMYKMAEQILARQQLIETVEYSLPNKHYFEIDLSWHKGLQNTGKNAEVFAPQSDPNGLIKCTVGRSSLKSKL
B3: urate oxidase from Micrococcus: Homemade recombinant urate oxidase from wild-type Micrococcus (SEQ ID NO: 9), not PEG modified (protein)
chain: MTNIILGKNQYGKAEVRLVKVTRNTCRHEIQDLNVTSQLRGDFEAAHTAGDNAHVVATDTQKNTVYAFARDGFATTEEFLLRLGKHFTEGFDWVTGGRWAAQQFFWDRINDHDHAFSRNKSEVRTAVLEISGSEQAIVAGIEGLTVLKSTGSEFHGFPRDKYTTLPETEDRILATDVSARWRYNTVEVDFDAVYADVRGLLLKAFAETHSLALQQTMYEMGRAVIETHPEIDEIKMSLPNKHHFLVDLSPFGQDNPNEVFYAADRPYGLIEATIQREGCRADHPIWSN

Columns and labels:
[1] = Stability of S1 and S2 urate oxidase with/without xanthine at 37° C.: SEC detection of high and low molecular proteins; type: physicochemical; conditions: for High molecular weight % / Low molecular weight % / Main peak %: storage 37° C. ± 2° C.
Protocol: SEC, 7.8×300 mm chromatographic column or equivalent column was selected. 0.05 mol/L Na2HPO4—NaH2PO4, 0.3 mol/L NaCl, pH 7.0 was used as the mobile phase. The flow rate of HPLC was set to be 0.5 ml/min, and the detection wavelength to 280 nm. Isocratic elution was performed for 35 min, and the injection volume was 10 μl.
(§1) In this example of the present disclosure, xanthine was added to the S1 and S2 samples at a molar ratio of 26 times (xanthine:urate oxidase). The samples were packaged and placed at 37° C. for stability evaluation at days 0, 1.5, 6, and 16. The evaluation indicators include the content of high and low molecular proteins and enzyme specific activity.

[2] = Stability effect of xanthine on urate oxidase from Micrococcus at 2° C. to 8° C.: SEC; type: physicochemical; conditions: for High molecular weight % / Low molecular weight % / Main peak area / Main peak ratio % / Total peak area: SEC
Protocol: SEC, 7.8×300 mm chromatographic column or equivalent column was selected. 0.05 mol/L Na2HPO4—NaH2PO4, 0.3 mol/L NaCl, pH 7.0 was used as the mobile phase. The flow rate of HPLC was set to be 0.5 ml/min, and the detection wavelength to 280 nm. Isocratic elution was performed for 35 min, and the injection volume was 10 μl. From the SEC results of the stability test at 2° C. to 8° C. in Table 3, it can be seen that the total peak area of the group with small molecules added on day 15 is larger and the main peak ratio thereof is higher.

[3] = Effect of xanthine on the activity of PEGylated urate oxidase (UV 293 nm); type: biochemical; conditions: xanthine 0.075 to 1.2 μg/ml
Protocol: The method used for determining the activity of urate oxidase and PEGylated urate oxidase was as follows. […] Therefore, the UV spectrophotometer detection wavelength was 293 nm. The buffer solution was used as a blank control, and the absorption zero point was calibrated. In the quartz cuvette, 2.95 ml of substrate reaction solution was added followed by 50 μl of the test solution, mixed immediately, and the light absorption value at 293 nm was measured. According to C=A/εL (A being the absorbance value of a specific concentration of uric acid at 293 nm, εbeing the molar extinction coefficient of uric acid, L being the light path of the cuvette, and C being the molar concentration of uric acid), the degradation concentration of uric acid and then the enzyme activity were calculated. Definition of the activity of urate oxidase and PEGylated urate oxidase: at the optimal reaction temperature of 37° C. and the optimal reaction pH of 9.5, the amount of enzyme required to convert […] uric acid into allantoin per minute being defined as one activity unit (U). […] The PEGylated urate oxidase solution was mixed with different amounts of xanthine at a molar ratio of 0.05 mg/ml PEGylated urate oxidase to xanthine of 1:0, 1:3, 1:11, and 1:44, and then the activity of urate oxidase and polyethylene glycol-modified urate oxidase was determined according to the above-mentioned detection method.

[4] = Text: As the amount of xanthine added increases, the pH of the solution needs to be further increased to dissolve xanthine. However, high pH conditions will cause protein denaturation. […] The stability change trend of PEGylated urate oxidase tetramer was detected by the detection method of high and low molecular proteins of PEGylated urate oxidase.
The situation where the molar ratio of xanthine to PEGylated urate oxidase was higher than 26:1 was studied.

[5] = Stability of S1 and S2 urate oxidase with/without xanthine at 37° C.: enzyme specific activity (uric acid absorbance at 293 nm); type: biochemical; conditions: storage 37° C. ± 2° C.
Protocol: (§2) The method used for determining the activity of urate oxidase and PEGylated urate oxidase was as follows. […] Therefore, the UV spectrophotometer detection wavelength was 293 nm. The buffer solution was used as a blank control, and the absorption zero point was calibrated. In the quartz cuvette, 2.95 ml of substrate reaction solution was added followed by 50 μl of the test solution, mixed immediately, and the light absorption value at 293 nm was measured. According to C=A/εL (A being the absorbance value of a specific concentration of uric acid at 293 nm, εbeing the molar extinction coefficient of uric acid, L being the light path of the cuvette, and C being the molar concentration of uric acid), the degradation concentration of uric acid and then the enzyme activity were calculated.
(§3) Definition of the activity of urate oxidase and PEGylated urate oxidase: at the optimal reaction temperature of 37° C. and the optimal reaction pH of 9.5, the amount of enzyme required to convert […] uric acid into allantoin per minute being defined as one activity unit (U).
as §1

[6] = Stability effect of xanthine on urate oxidase from Micrococcus at 2° C. to 8° C.: enzyme activity; type: biochemical; conditions: storage 2° C. to 8° C., 15 d
Protocol: as §2, §3

[7] = immediate detection after process preparation

| Molecule | High molecular weight % ([1]; 0 d) | Low molecular weight % ([1]; 0 d) | Main peak % ([1]; 0 d) | High molecular weight % ([1]; 1.5 d) | Low molecular weight % ([1]; 1.5 d) | Main peak % ([1]; 1.5 d) | High molecular weight % ([1]; 6 d) | Low molecular weight % ([1]; 6 d) | Main peak % ([1]; 6 d) | High molecular weight % ([1]; 16 d) | Low molecular weight % ([1]; 16 d) | Main peak % ([1]; 16 d) | Enzyme specific activity U/mg ([5]; 0 d) | Enzyme specific activity U/mg ([5]; 1.5 d) | Enzyme specific activity U/mg ([5]; 6 d) | Enzyme specific activity U/mg ([5]; 16 d) | further results |
| --- | --- | --- | --- | --- | --- | --- | --- | --- | --- | --- | --- | --- | --- | --- | --- | --- | --- |
| O=c1[nH]c(=O)c2[nH]cnc2[nH]1 [xanthine] |  |  |  |  |  |  |  |  |  |  |  |  |  |  |  |  | effect of xanthine on the product stability of commercially available products and PHC ([1]; 26 times molar ratio, 37° C.): significantly improve the product stability; effect of xanthine on the stability of the enzyme derived from Micrococcus ([2]; 26 times xanthine, 2° C. to 8° C., day 15, text): improve the stability of the enzyme derived from Micrococcus to a certain extent; effect of the addition of xanthine on the activity of PEGylated urate oxidase [3]: no effect; solubility of xanthine [4]: good solubility |
| B1 | 0.7% | 0.3% | 99% | 54.5% | 0.2% | 45.3% | 75.1% | 0.5% | 24.4% | 85.1% | 5% | 9.9% | 11.3 U/mg | 5.2 U/mg | 3.2 U/mg | 1.2 U/mg |  |
| B2 | 0.3% | 1% | 98.8% | 0.2% | 5.6% | 94.2% | 7.3% | 17.7% | 75% | 17.2% | 51.7% | 31% | 15.3 U/mg | 12.6 U/mg | 8.5 U/mg | 3 U/mg |  |
| B3 |  |  |  |  |  |  |  |  |  |  |  |  |  |  |  |  | High molecular weight % [2, 7]: 40.01%; Low molecular weight % [2, 7]: 2.34%; Main peak area [2, 7]: 3,986; Main peak ratio % [2, 7]: 57.65%; Total peak area [2, 7]: 6914.90; High molecular weight % ([2]; storage 2° C. to 8° C., 15 d): 74.58%; Low molecular weight % ([2]; storage 2° C. to 8° C., 15 d): 9.11%; Main peak area ([2]; storage 2° C. to 8° C., 15 d): 814; Main peak ratio % ([2]; storage 2° C. to 8° C., 15 d): 16.31%; Total peak area ([2]; storage 2° C. to 8° C., 15 d): 4993.05; Enzyme activity U/mg [6]: 3.58 U/mg |
